# According to IntAct's records for PubMed 17392269:
# B1: Protein Pixie (Drosophila melanogaster (Fruit fly)), Q9VSS1 (parent)
# chain: MSRRKENEEVDKQTRIAIVSDDKCKPKRCRQECKKTCPVVRMGKLCIEVTPTSKIASLSEELCIGCGICVKKCPFEAITIINLPSNLEKHTTHRYSKNSFKLHRLPIPRPGEVLGLVGQNGIGKSTALKILAGKQKPNLGKYANPPDWTEILSYFRGSELQNYFTKILEDNLKALVKPQYVDQIPKAVRGAVGDLLDKKDERELQTKICEMLDLSHIRDREIAQLSGGELQRFAIAMVCIQNADIFMFDEPSSYLDVKQRLNAALTIRSLLHPTKFIIVVEHDLSVLDYLSDFICCLYGVPGCYGVVTMPFSVREGINIFLDGFVPTENMRFRTESLTFKVSESATEEEIKRMNHYVYPAMVKTLGKFELTVEKGHFSDSEILVLLGENGTGKTTFIRMLAGNLQPDGEVELPMLNISYKPQKISPKFQNHVRHLLHDKIRDAYVHPQFIADVMKPMKIEEIMDQEVQNLSGGELQRVALVLCLGKPADVYLIDEPSAYLDSEQRLVAAKVIKRYILHAKKTGFVVEHDFIMATYLADRVIVIEGQPSVKTTAFSPQSLLNGMNRFLELLGITFRRDPNNFRPRINKNNSVKDTEQKRSGQFFFLEDEACN
# partner: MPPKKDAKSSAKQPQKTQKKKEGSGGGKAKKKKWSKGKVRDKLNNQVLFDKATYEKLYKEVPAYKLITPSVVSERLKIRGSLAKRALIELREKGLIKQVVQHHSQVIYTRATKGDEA
# Variants of: B1
# Settings: with rs25_drome RpS25, P48588
row,effect of a mutation on the interaction,Variant
1,increasing interaction,E503Q
